# Laboratory results from US20110189292A1 (ALLERGAN, published 2011).
# B1: 23RGD peptide (HOOC-GRGDIPASSKG4SRL6R-NH2) (peptide)
# peptide: GRGDIPASSKGGGGSRLLLLLLR
# modifications: not fully specified; -NH2 at the Arg end as printed (HOOC-Gly-...-Arg-NH2). An optional variant, SEQ ID NO: 2, is acylated (Ac-) and has D-arginines.
# notes: also called 23RDG
# How the values were obtained:
# [1] = molecular target: T1, silk fibroin, sericin-extracted, from degummed Bombyx mori silk, dissolved in 9.3 M LiBr and dialysed (Bombyx mori, UniProt P05790 22-5263; P21828 17-262, limits assumed); assay: reading of the HPLC ratios of the silk precipitates
# T1 construct: also called silk molecules
# Protocol: (§1) The amount of 23RGD bound to silk precipitates was quantified by analyzing lyophilized samples. The 23RGD was removed by incubating the samples for 4 hours in a dissolving buffer, then centrifuging on an Eppendorf 5415C (Eppendorf North America Inc., Westbury, N.Y.) at 16,000 g (RCF) for 30 minutes and the supernatant collected. This supernatant was then centrifuged in identical fashion and the final supernatant collected for HPLC analysis using a PerkinElmer Series 200 (PerkinElmer, Waltham, Mass.). The 23RGD peak areas from each curve were compared against a standard curve. 1-Way ANOVA was used to test for significant differences caused by changing silk concentration, 23RGD concentration, and accelerant volume. A Student's t-test was used to test the significance of differences resulting from altered ethanol concentrations.
# [2] = molecular target: T1, silk fibroin, sericin-extracted, from …; assay: HPLC of 23RGD extracted from silk precipitate; formulation 0.6S 3R 10:1
# Protocol: as §1
# Precipitate samples generated at a calculated 10:1 23RGD:silk ratio consistently generated a “correct” molecular binding ratio. In the case of AVHI, this runs contrary to the trend of bound 23RGD concentrations being approximately double the projected values as indicated by AVLO and BASE (about 5:1 and about 9:1, respectively). This might be explained by saturation of the silk with 23RGD in the case of 10:1 23RGD precipitates. […]
# [3] = molecular target: T1, silk fibroin, sericin-extracted, from …; assay: HPLC of 23RGD extracted from lyophilised silk precipitate; formulation RHI
# Protocol: as §1
# [4] = molecular target: T1, silk fibroin, sericin-extracted, from …; assay: HPLC of 23RGD extracted from the rinsed silk gel, against a standard curve
# Source text: 23RGD-infused gels were studied to quantify the amount of 23RGD bound to the silk-hydrogel device as well as the quantity of free 23RGD which might be rinsed free of the device under relevant conditions. Briefly, samples of 23RGD-infused gel were cast and rinsed according to the methods above, with samples of rinse buffer being collected from each rinse for subsequent analysis by HPLC. Additionally, subsequent to the last rinse, the gel samples were mechanically pulverized by means of a stainless steel stirring rod and the adsorbed 23RGD removed by incubation for 4 hours in a dissolving buffer. This mixture of gel and solvent was then centrifuged on an Eppendorf 5415C at 16,000 g RCF for 30 minutes. The supernatant was collected and centrifuged another 30 minutes at 16,000 g RCF after which time the supernatant was collected in a sample vial for HPLC analysis. Samples of rinse buffer from the first and last rinse were centrifuged in the same fashion after being diluted with the same solvent the gel was extracted with in a volumetric ratio of 1 part rinse buffer to 4 parts solvent. To ensure 23RGD-hydrogel device rinse-exposed surface area was not a limiting factor, the same rinse and extraction process was performed upon devices pulverized after gelation and before rinsing. […]
# [5] = molecular target: T1, silk fibroin, sericin-extracted, from …; assay: HPLC of 23RGD extracted from lyophilised silk precipitate; formulation AVHI
# Protocol: as §1
# [6] = molecular target: T1, silk fibroin, sericin-extracted, from …; assay: HPLC of 23RGD extracted from lyophilised silk precipitate; formulation AVLO
# Protocol: as §1
# [7] = molecular target: T1, silk fibroin, sericin-extracted, from …; assay: HPLC of 23RGD extracted from lyophilised silk precipitate; formulation BASE
# Protocol: as §1
# [8] = molecular target: T1, silk fibroin, sericin-extracted, from …; assay: HPLC of 23RGD extracted from lyophilised silk precipitate; formulation SCLO
# Protocol: as §1
# [9] = molecular target: T1, silk fibroin, sericin-extracted, from …; assay: HPLC of 23RGD extracted from lyophilised silk precipitate; formulation SCVLO
# Protocol: as §1
# [10] = molecular target: T1, silk fibroin, sericin-extracted, from …; assay: HPLC of 23RGD extracted from lyophilised silk precipitate; formulation printed as RLO
# Protocol: as §1
# [11] = molecular target: T1, silk fibroin, sericin-extracted, from …; assay: HPLC of 23RGD extracted from lyophilised silk precipitate; formulation printed as RMED
# Protocol: as §1
# [12] = molecular target: T1, silk fibroin, sericin-extracted, from …; assay: HPLC of 23RGD extracted from silk precipitate; formulation AVLO, against the calculated ratio
# Protocol: as §1
# (§2) Few of the silk precipitates entrained a molar ratio similar to what was initially calculated (FIG. 23). Four groups, SCVLO, AVHI, RHI, and RLO contained ratios similar to their calculated values of RGD per mole of silk. The six remaining groups contained ratios substantially greater than their calculated values. In the cases of AVLO, BASE, RMED, and SCLO, the RGD quantities were about 2-fold greater than expected. Although not wishing to be limited by theory, this greater observed molar ratio may be indicative of the formation of a RGD bi-layer. […]
# [13] = molecular target: T1, silk fibroin, sericin-extracted, from …; assay: HPLC of 23RGD extracted from silk precipitate; formulation ECLO, against the calculated ratio
# Protocol: as §1, §2
binder,measurement,setting,value
B1,"apparent saturation, 23RGD:silk ratio",[1],~10 mol 23RGD per mol silk
same,23RGD:silk ratio bound,[2],~10 mol 23RGD per mol silk
same,23RGD:silk ratio bound,[3],10.7 mol 23RGD per mol silk
same,23RGD:silk ratio bound,[4],3.35 mol 23RGD per mol silk
same,23RGD:silk ratio bound,[5],10.5 mol 23RGD per mol silk
same,23RGD:silk ratio bound,[6],5.2 mol 23RGD per mol silk
same,23RGD:silk ratio bound,[7],8.7 mol 23RGD per mol silk
same,23RGD:silk ratio bound,[8],9.9 mol 23RGD per mol silk
same,23RGD:silk ratio bound,[9],11 mol 23RGD per mol silk
same,23RGD:silk ratio bound,[10],1.1 mol 23RGD per mol silk
same,23RGD:silk ratio bound,[11],6.95 mol 23RGD per mol silk
same,fold of bound RGD over the calculated RGD:silk ratio,[12],~2 fold
same,fold of bound RGD over the calculated RGD:silk ratio,[13],~1.5 fold
